The values that follow come from US20180021429A1, “ANTICANCER AGENTS OR ANTIMETASTATIC AGENTS USING FSTL1 AND COMBINATION DRUG THEREOF” (PHARMA FOODS INTERNATIONAL CO., LTD., priority 2015, published 2018).

Numbering of substitutions follows the chain as printed. “Also recorded” adds a separate entry of the source.

The subject of this assay is induction of mesenchymal stem cells (MSCs) by FSTL1. Nature of the assay: Inhibitory activity against induction of MSC by FSTL1, CD45-negative cells (Examples 6, 8, 12). The class given is cell-based, mouse. The following applies: antibody 10 μg/mL. Here is the method: (§1) Mouse bone marrow cells prepared in the same way as in Example 4 were supplemented with 50 ng/mL (final concentration) of FSTL1 and 10 μg/mL of the anti-FSTL1 antibody (#5-2, #5-3, #5-8, #5-10, 45-43, #6-55, or #7-34) or a control antibody anti-DNP antibody and cultured under stimulation. 11 days thereafter, the number of cells was counted while the cells were stained with a PE-Cy5-labeled anti-CD45 antibody (BD Pharmingen/Becton, Dickinson and Company, Cat. No. 555484), and the content of CD45-negative cells reported to generally contain MSCs at a high rate was analyzed by flow cytometry using FACScan to calculate the percentage and number of MSCs per culture (FIG. 5A).
Mouse bone marrow cells prepared in the same way as in Example 4 were supplemented with 20 ng/mL (final concentration) of FSTL1 and 10 μg/mL of the anti-FSTL1 antibody (#5-2, #5-3, #5-8, #5-10, #5-43, #6-55, #8-1, #8-4, #8-7, and #8-8) or a control antibody anti-DNP antibody and cultured under stimulation. 8 days thereafter, the number of cells was counted while the cells were stained with a PE-Cy5-labeled anti-CD45 antibody, and the content of CD45-negative cells was analyzed by flow cytometry using FACScan to calculate the percentage and number of MSCs per culture (FIG. 6A).
Mouse bone marrow cells prepared in the same way as in Example 4 were supplemented with 20 ng/mL (final concentration) of FSTL1 and 10 μg/mL of the anti-FSTL1 antibody (#5-2, #5-8, #6-55, #7-34, #8-1, #8-4, #8-7, or #8-8) or a control antibody anti-DNP antibody and cultured under stimulation. 8 days thereafter, the number of cells was counted while the cells were stained with a PE-Cy5-labeled anti-CD45 antibody, and the content of CD45-negative cells was analyzed by flow cytometry using FACScan to calculate the percentage and number of MSCs per culture (FIG. 7).
as §1, with “35A).” for “5A).”
Mouse bone marrow cells prepared in the same way as in Example 4 were supplemented with 20 ng/mL (final concentration) of FSTL1 and 10 μg/mL of the anti-FSTL1 antibody (#5-2, #5-3, #5-8, #5-10, #5-43, #6-55, #8-1, #8-4, #8-7, and #8-8) or a control antibody anti-DNP antibody and cultured under stimulation. 8 days thereafter, the number of cells was counted while the cells were stained with a PE-Cy5-labeled anti-CD45 antibody, and the content of CD45-negative cells was analyzed by flow cytometry using FACScan to calculate the percentage and number of MSCs per culture (FIG. 36A).
Mouse bone marrow cells prepared in the same way as in Example 4 were supplemented with 20 ng/mL (final concentration) of FSTL1 and 10 μg/mL of the anti-FSTL1 antibody (#5-2, #5-8, #6-55, #7-34, #8-1, #8-4, #8-7, or #8-8) or a control antibody anti-DNP antibody and cultured under stimulation. 8 days thereafter, the number of cells was counted while the cells were stained with a PE-Cy5-labeled anti-CD45 antibody, and the content of CD45-negative cells was analyzed by flow cytometry using FACScan to calculate the percentage and number of MSCs per culture (FIG. 37).

Setting [1] is: Example 8, FIG. 6A/36A, FSTL1 20 ng/mL, 8 days.
[2] abbreviates: Example 12, FIG. 7/37, FSTL1 20 ng/mL, 8 days.
Where [3] appears, read: Example 6, FIG. 5A/35A, FSTL1 50 ng/mL, 11 days.

B1: #6-55: chicken-mouse chimeric anti-FSTL1 antibody clone; variable regions SEQ ID NO: 783 (light), 785 (heavy) (antibody, V domains shown)
VH: AVTLDESGGGLQTPGGALSLVCKGSGFTFTSVTMQWVRQAPGKGLEWVASVCSGSSTYYAPAVKGRATISRDNGQSTVRLQLSNLRPEDTGTYYCAKIAGRARWSCTSAAYNIDAWGHGTEVIVSS
VL: ASTQPSSVSAIPGETVKITCSGGGNNYGWYQQRSPGSAPVTVIYYNDNRPSNIPSRFSGSTSGSTSTLTITGVQADDEAIYYCGSWDSNTDSGIFGAGTTLTVL
modifications: mouse constant regions
As to B1, the “inhibitory activity against the expansion of CD45-negative cells by FSTL1” value (shortened to “inhibitory activity”) by setting is: under setting [1], “exhibited inhibitory activity against the expansion of CD45-negative cells by FSTL1; also recorded: Inhibitory activity was confirmed”; under setting [2], “higher inhibitory activity was confirmed in the order of #7-34, #5-2, #6-55, and #8-7”.

B2: #7-34: chicken-mouse chimeric anti-FSTL1 antibody clone; variable regions SEQ ID NO: 787 (light), 789 (heavy) (antibody, V domains shown)
VH: AVTLDESGGGLQTPGGGLSLVCKASGFTFSSVTMQWVRQAPGKGLEWVASICSGSSTYYGPAVKGRATISRDNGQNTVRLQLNNLRAEDTATYYCAKIVGRGRWSCTSAAYNIDAWGHGTEVIVSS
VL: B1 VL with I11N, R33K, D47N, D76E, I80V, W86Y, D87E, S88G, N89S
modifications: mouse constant regions
Regarding B2, the “inhibitory activity” value under setting [3] was “higher inhibitory activity and substantially completely inhibited the action of FSTL1”; the “inhibitory activity” value under setting [2] is “higher inhibitory activity was confirmed in the order of #7-34, #5-2, #6-55, and #8-7; also recorded: stronger inhibitory activity was confirmed in the order of clone #7-34, #5-2, 46-55, and #8-7”.

B3: #5-43: chicken-mouse chimeric anti-FSTL1 antibody clone; variable regions SEQ ID NO: 779 (light), 781 (heavy) (antibody, V domains shown)
VH: AVTLDESGGGLQTPGGGLSLVCKGSGFTFSSFNMFWVRQAPGKGLEWVAGIGKDGGTGYGAAVDGRATISKDSGQSTLRLQLNNLRAEDTGTYYCAKAAGGCSYDWCGAYTGDIDTWGHGTEVIVSS
VL: ASTQPSSVSANPGEAVKITCSGGSGSYYGWYQQKSPGSAPVTVIYNNNQRPSDIPSRFSGSKSGSTATLTITGVQAEDEAVYFCGGYDSSTGHGGIFGAGTTLTVL
modifications: mouse constant regions
On to B3, for which the “inhibitory activity” value runs as follows: under setting [3], “higher inhibitory activity and substantially completely inhibited the action of FSTL1”; under setting [1], “exhibited inhibitory activity against the expansion of CD45-negative cells by FSTL1; also recorded: Inhibitory activity was confirmed”.

B4: #5-3: chicken-mouse chimeric anti-FSTL1 antibody clone; variable regions SEQ ID NO: 767 (light), 769 (heavy) (antibody, V domains shown)
VH: B3 VH with G17A, T28S, G56V, T57P, G58K, S73N, L78M, Y94F, A109I, T111A
VL: ASTQPSSVSANPGETVKITCSGGSGYYYGWYQQKSPGSVPVTVIYNNNNRPSDIPSRFSGSKSGSTGTLTITGVRAEDEAVYYCGGYDNSGTGIFGAGTTLTVL
modifications: mouse constant regions
For B4, under setting [3], the “inhibitory activity” value was “higher inhibitory activity and substantially completely inhibited the action of FSTL1”.

B5: #8-7: chicken-mouse chimeric anti-FSTL1 antibody clone; variable regions SEQ ID NO: 799 (light), 801 (heavy) (antibody, V domains shown)
VH: B3 VH with G56V, T57P, G58K, S73N, Y94F, A109I, T111A
VL: B3 VL
modifications: mouse constant regions
Take B5: the “inhibitory activity” value under setting [2] was “higher inhibitory activity was confirmed in the order of #7-34, #5-2, #6-55, and #8-7; also recorded: stronger inhibitory activity was confirmed in the order of clone #7-34, #5-2, 46-55, and #8-7”.

B6: #8-1: chicken-mouse chimeric anti-FSTL1 antibody clone; variable regions SEQ ID NO: 791 (light), 793 (heavy) (antibody, V domains shown)
VH: B3 VH with G17A, G56V, T57P, G58K, S73N, L78M, Y94F, A109I, T111A
VL: B3 VL with T91S
modifications: mouse constant regions
For the molecule B6, under setting [1], the “inhibitory activity” value is “exhibited inhibitory activity against the expansion of CD45-negative cells by FSTL1; also recorded: Inhibitory activity was confirmed”.

B7: #8-4: chicken-mouse chimeric anti-FSTL1 antibody clone; variable regions SEQ ID NO: 795 (light), 797 (heavy) (antibody, V domains shown)
VH: B3 VH with F29L, I51V, G58A, K71R, L78V, Y94F, D105S, T111V, I114L, T116A
VL: B4 VL with T3S, V39A, N48D, R50K, R75Q, A76V, Y83F
modifications: mouse constant regions
For B7, the “inhibitory activity” value under setting [1] is reported as “exhibited inhibitory activity against the expansion of CD45-negative cells by FSTL1”.

B8: #5-8: chicken-mouse chimeric anti-FSTL1 antibody clone; variable regions SEQ ID NO: 771 (light), 773 (heavy) (antibody, V domains shown)
VH: B3 VH with G56V, T57P, G58K, A61T, S73N, L78M, Y94F, A109I
VL: B3 VL
modifications: mouse constant regions
B8: the “inhibitory activity” value was “higher inhibitory activity and substantially completely inhibited the action of FSTL1” under setting [3]; “exhibited inhibitory activity against the expansion of CD45-negative cells by FSTL1; also recorded: Inhibitory activity was confirmed” under setting [1].

B9: #5-2: chicken-mouse chimeric anti-FSTL1 antibody clone; variable regions SEQ ID NO: 763 (light), 765 (heavy) (antibody, V domains shown)
VH: B3 VH with I51V, S73N, D105G, A109S, T111V, T116A
VL: B3 VL
modifications: mouse constant regions
As for B9, under setting [2], the “inhibitory activity” value is “higher inhibitory activity was confirmed in the order of #7-34, #5-2, #6-55, and #8-7; also recorded: stronger inhibitory activity was confirmed in the order of clone #7-34, #5-2, 46-55, and #8-7”.
